The experiment addresses T1, hamster phospholipase B-like 2 (PLBL2) (hamster, UniProt G3I6T1 38-585, Used as two conjugates: one with biotin (Biotin-PLBL2) and one with digoxigenin (DIG-PLBL2). Conjugation sites are not stated. Natural mannose-6-phosphate glycans are not carried by the letters.).
T1 construct: Purified hamster PLBL2; also called PLB2; PLBD2
T1 sequence: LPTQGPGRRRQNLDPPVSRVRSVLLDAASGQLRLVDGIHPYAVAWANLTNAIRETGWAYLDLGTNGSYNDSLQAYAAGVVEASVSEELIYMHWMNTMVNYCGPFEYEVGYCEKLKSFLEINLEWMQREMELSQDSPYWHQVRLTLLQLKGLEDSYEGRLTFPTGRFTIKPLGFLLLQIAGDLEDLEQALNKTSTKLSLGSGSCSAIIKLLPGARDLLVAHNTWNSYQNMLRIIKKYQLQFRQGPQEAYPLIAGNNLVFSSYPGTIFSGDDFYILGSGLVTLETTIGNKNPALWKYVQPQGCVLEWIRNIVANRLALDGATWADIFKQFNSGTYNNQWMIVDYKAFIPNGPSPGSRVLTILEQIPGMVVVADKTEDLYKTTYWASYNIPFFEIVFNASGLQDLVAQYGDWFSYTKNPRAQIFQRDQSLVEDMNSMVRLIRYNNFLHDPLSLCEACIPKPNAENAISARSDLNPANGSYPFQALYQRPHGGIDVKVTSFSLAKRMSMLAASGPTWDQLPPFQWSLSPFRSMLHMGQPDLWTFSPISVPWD
Description: bridging ELISA with Biotin-PLBL2 and DIG-PLBL2, drug tolerance experiment in serum. As for the experimental part:
The antibody bridging ELISA assay that was developed and validated to detect antibodies to hamster PLBL2 in human serum used two conjugated reagents to capture all isotypes of antibodies directed against hamster PLBL2: purified hamster PLBL2 conjugated to biotin (Biotin-PLBL2) and purified hamster PLBL2 conjugated to digoxigenin (DIG-PLBL2). Production and purification of hamster PLBL2 was carried out using standard methods known to one skilled in the art is also described in U.S. Provisional Application Nos. 61/877,503 and 61/991,228 and conjugation to biotin or DIG were carried out using standard methods known to one skilled in the art. In this semi-homogenous antibody bridging ELISA assay, 75 μL/well of conjugated solution in assay diluent (PBS/0.5% BSA/0.05% Polysorbate 20/0.05% ProClin 300, pH 7.4±0.1) containing 3 μg/mL of each Biotin-PLBL2 and DIG-PLBL2 were co-incubated overnight (16-24 hours) at ambient temperature with 75 μL/well of 1:20 diluted serum samples and controls in assay diluent in polypropylene micronic tubes (National Scientific Supply Co.; Claremont, C A). […] The plates were read at 450 nm for detection absorbance and 630 nm for reference absorbance.
(ELISA stands for enzyme-linked immunosorbent assay.)

B1: lebrikizumab (antibody, human IgG4 S228P, kappa, V domains shown)
VH: VTLRESGPALVKPTQTLTLTCTVSGFSLSAYSVNWIRQPPGKALEWLAMIWGDGKIVYNSALKSRLTISKDTSKNQVVLTMTNMDPVDTATYYCAGDGYYPYAMDNWGQGSLVTVSS
VL: DIVMTQSPDSLSVSLGERATINCRASKSVDSYGNSFMHWYQQKPGQPPKLLIYLASNLESGVPDRFSGSGSGTDFTLTISSLQAEDVAVYYCQQNNEDPRTFGGGTKVEIKR
notes: Humanized IgG4; also called anti-IL13 MAb; anti-IL13 monoclonal antibody
On to B1, for which the binding result is “no binding (tested: 50 µg/mL)”.

(Values after patent publication US20160319012A1 (Genentech, published 2016).)
